Nine sequences from a protein production outcome set (Wang et al. 2014) can be followed below.

The data set can be described thus: label from the status in PepcDB records.
For the sequence “MEPAILIITLICGMLVSRIGLPPLIGYLVAGFVLFVMGIEKESMPLLQELANLGVTLLLFAIGLKLDIRSLFKAEVWAGSSVHLILSILVFVPILKILGLLGLSQLTSLGIEQLTLLAFALSFSSTVFAVKVLEDKGDMQSLYGRVAIGILIMQDIFAVLFLTISKGDVPSVWAFALLLLPLAKPLIYKAFDRVGHGELLVLFGLVMALVVGAWLFESLGLKPDLGALVIGILLAGHKKASELAKSLFYFKELFLVAFFLTIGLNGLPTVSDIVLAALLVLLVPLKILLFVYILTRFKLRSRTSMLGSFNLGNFSEFGLIVAAVATSKGWLPSHWLVIIAVALSFSFLLAAPLNATVGSIYQRFQLRLVRLEKRPLHPEDRPIAIGNPRFLILGMGRIGSGAYDELRARFDGEILGIEHKQDLVDLHRAKGRNVVQGDASDTDFWEKLDKAPNLELVLLAMPHHAGNLFAVEQLNKLNYQGKISAIVQYGEDAASLRNSGVHSVYNLYEAAGAGFVDHVVHELLPDSETKAGTEAQEGTQKQTSSLV”, the protein production result is given as “failed”.
With “MEPEEERIRYSQRLRGTMRRRYEDDGISDDEIEGKRTFDLEEKLHTNKYNANFVTFMEGKDFNVEYIQRGGLRDPLIFKNSDGLGIKMPDPDFTVNDVKMCVGSRRMVDVMDVNTQKGIEMTMAQWTRYYETPEEEREKLYNVISLEFSHTRLENMVQRPSTVDFIDWVDNMWPRHLKESQTESTNAILEMQYPKVQKYCLMSVRGCYTDFHVDFGGTSVWYHIHQGGKVFWLIPPTAHNLELYENWLLSGKQGDIFLGDRVSDCQRIELKQGYTFVIPSGWIHAVYTPTDTLVFGGNFLHSFNIPMQLKIYNIEDRTRVPNKFRYPFYYEMCWYVLERYVYCITNRSHLTKEFQKESLSMDLELNGLESGNGDEEAVDREPRRLSSRRSVLTSPVANGVNLDYDGLGKTCRSLPSLKKTLAGDSSSDCSRGSHNGQVWDPQCAPRKDRQVHLTHFELEGLRCLVDKLESLPLHKKCVPTGIEDEDALIADVKILLEELANSDPKLALTGVPIVQWPKRDKLKFPTRPKVRVPTIPITKPHTMKPAPRLTPVRPAAASPIVSGARRRRVRCRKCKACVQGECGVCHYCRDMKKFGGPGRMKQSCVLRQCLAPRLPHSVTCSLCGEVDQNEETQDFEKKLMECCICNEIVHPGCLQMDGEGLLNEELPNCWECPKCYQEDSSEKAQKRKMEESDEEAVQAKVLRPLRSCDEPLTPPPHSPTSMLQLIHDPVSPRGMVTRSSPGAGPSDHHSASRDERFKRRQLLRLQATERTMVREKENNPSGKKELSEVEKAKIRGSYLTVTLQRPTKELHGTSIVPKLQAITASSANLRHSPRVLVQHCPARTPQRGDEEGLGGEEEEEEEEEEEDDSAEEGGAARLNGRGSWAQDGDESWMQREVWMSVFRYLSRRELCECMRVCKTWYKWCCDKRLWTKIDLSRCKAIVPQALSGIIKRQPVSLDLSWTNISKKQLTWLVNRLPGLKDLLLAGCSWSAVSALSTSSCPLLRTLDLRWAVGIKDPQIRDLLTPPADKPGQDNRSKLRNMTDFRLAGLDITDATLRLIIRHMPLLSRLDLSHCSHLTDQSSNLLTAVGSSTRYSLTELNMAGCNKLTDQTLIYLRRIANVTLIDLRGCKQITRKACEHFISDLSINSLYCLSDEKLIQKIS”, the protein production entry is “failed”.
As to “MEPGPEDYLVCAIAKPADKRLVVEKLLGKGARFFTLIHPSVIMGENVVIGQGAVICPSTVLSVDLRIGAFVTLNIGCLVGHDADIGDFSTLSGHCDITGGVVLEEEVFMGTHASVLPNVKVGKQAVVGAGSVAIRNVAAGITVFGVPAKRISGLEHHHHHH”, the protein production entry is listed as “failed”.
Then “MEPIVFNGYHTLITATLVLLVGRFFVNKIKVLQDFNIPEAVAGGLIAAVAILCLYNWFGVSLQFEQSLQNAFMLAFFSSVGLSADFSRLKQGGMPLVIFLVVVSLYIIIQNVIGVGLASALGLDPMIGLLTGSITLTGGHGTGAAWAKIFSEEYNITGVMEMAMASATFGLVAGGLIGGPIARRLINKMKKDRSQQITKRVDTSAEQYDGSTFEDHDSIRYITASSTIETMALFAACLGFSSIIVNTFPDISLPQFVWALGFGVILRNVLTKVFKFDMFDRAIDVFGNASLSMFLAMALMSIKLWELTGLAGPMLIILVVQTLVMILYGYFVTYRVMGKDYDAAILTAGHCGFGLGATPTAVANMQSVTEKFGSSHKAFLIVPLVGAFFVDILNLAVITSFVDFLR”, with “failed”; and “MEPNIYQLALAALFGASFVAVSGFFMHFKALNLVLERGKERKENPDGDEPQNPTLVRRRSQVRRKVNDQYGRSPASLPDATPFTDGGGGGGGDTGRSNGHVYVDEIPPGLPRLHTPSEGRASVHGASSIRKTGSFVRPISPKSPVASASAFESVEESDDDDNLTNSEGLDASYLQANGDNEMPADANEEQISMAASSMIRSHSVSGDLHGVQPDPIAADILRKEPEQETFVRLNVPLEVPTSDEVEAYKCLQECLELRKRYVFQETVAPWEKEVISDPSTPKPNTEPFAHYPQGKSDHCFEMQDGVVHVFANKDAKEDLFPVADATAFFTDLHHVLKVIAAGNIRTLCHRRLVLLEQKFNLHLMLNADKEFLAQKSAPHRDFYNVRKVDTHVHHSACMNQKHLLRFIKSKLRKEPDEVVIFRDGTYLTLREVFESLDLTGYDLNVDLLDVHADKSTFHRFDKFNLKYNPCGQSRLREIFLKQDNLIQGRFLGEITKQVFSDLEASKYQMAEYRISIYGRKMSEWDQLASWIVNNDLYSENVVWLIQLPRLYNIYKDMGIVTSFQNILDNIFIPLFEATVDPDSHPQLHVFLKQVVGFDLVDDESKPERRPTKHMPTPAQWTNAFNPAFSYYVYYCYANLYVLNKLRESKGMTTITLRPHSGEAGDIDHLAATFLTCHSIAHGINLRKSPVLQYLYYLAQIGLAMSPLSNNSLFLDYHRNPFPVFFLRGLNVSLSTDDPLQIHLTKEPLVEEYSIAASVWKLSACDLCEIARNSVYQSGFSHALKSHWIGKDYYKRGPDGNDIHKTNVPHIRVEFRDTIWKEEMQQVYLGKAVISDEVVP”, with “not failed”.
The value for “MEPTAPAPTPAATRNTESTAKIVYVLYLLSFAAGITTLIGVVMAYVNEGDAPEGLRTHYRFQIRTFWIGLLYAVVGGLLTIVGIGALILLFVAVWLVIRCVKGLKWLDQRQPVPNPATWLW” was “failed”; that for “MEPTDVSTGTGKVLLLDTKRYGYWKVCMTQIIRGQEDGFKITKPKANWTAEEKLQSKFNARAMKAIFNGVDEDEFKLIQGCKSAKQAWDTLQKSHEGTSSVKRTRLDHIATQFEYLKMEPDEKIVKFSSKISALANEAEVMGKTYKDQKLVKKLLRCLPPKFAAHKAVMRVAGNTDKISFVDLVGMLKLEEMKADQDKVKPSKNIAFNADQGSEQFQEIKDGMALLARNFGKALKRVEIDGERSRGRFSRSENDDLRKKKEIQCYECGGFGHIKPECPITKRKEMKCLKCKGVGHTKFECPNKSKLKEKSLISFSDSESDDEGEELLNFVAFMASSDSSKFMSDTDSDCDEELNPKDKYRVLYDSWVQLSKDKLKLVKEKLTLEAKLANVSTEDKQKLSGITVDGNSQDYYQKKLDCLQKECHRERDRTKLLERELNDKYKQIRMLNKGLESLDKILAMGRTDSQQRGLGYQGYTGKIKKEEGRVINFVSGGSTSETVVRQSYIEPKKQVKSHVEIKRESVVRTRMVGVICCDHCGKRFHMREQCYKFKEKVRTLWNLAKCFIEPSRFCTVWIKKKDLYGDMEAERYNHKLERMYEEEEMHYASCCNQVNKEMQDEARKKDDSFGST” was “failed”.
Then “MEQADVTSLIPILITLFLALTTRNVVVGLFAGVVSGVAMLEGTFVEKGPLDSFSALMKSYLLPQLTDSYNAGVILLLVFIGGFVALMEKSGGGVAFAKKVTQWVASKCQAQLSAWFGGVVIFFSDLGTPLIVGPVFRPLFDKLKVSRQKLAFIIDSTSSPVAILIPFIGWGVYIMGLIQKEFTALNVSMSDWDAFIGAIPYQFYAFLAIAIVPIVSFFKLDFGPMAKAEQLAEQGSDFGKEQESMNVFTHKNAKSSFVWAPLLVMLVVLCTILVPHGFPFQKVAGSTFRAALSSAYFFAAFTLIALMAFYGVRKLSDGIQVYLKGMSNMMSVAVILVLAWALSSVGKELGAAAYIAEQAQAGFPYWLLPAVAFLLAGIISFATGSSWGTFAIMMPLVIPTAVAIDAPLLVCIGAVLSGGLFGDHCSPISETTILSSTGAGCEQYEHFRTQLPYAVLNGVIALVCFLLAGVAASPVIVLAAIVAQFAIYYVLSKQKPTEQLESVSAE”, with “failed”; and “MEQEEPCEAKETASSSIEPKTPNPNVPDSIPAIDSDSSLSEEEIVTEKDRGIVTLSPLCKQRIDSASISDCVLVSDDEIIESLYQNLLRVILSLQQIQSVAVVPEIWCFDGCKTPPPSSRNLDSNMVSDTCPGAPMKLTKISRNIDSGLRRKLF”, with “failed”.
